Experimental data taken from PMC8401098, “The Uncommon Active Site of D-Amino Acid Transaminase from Haliscomenobacter hydrossis: Biochemical and Structural Insights into the New Enzyme” (Molecules, 2021).
Numbering of substitutions follows the chain as printed. In names and notes the source's numbering stands.

Experiments:
[1] = biological target: T1, Halhy (D-amino acid transaminase from Haliscomenobacter hydrossis) (Haliscomenobacter hydrossis, UniProt F4KWH0); assay: X-ray crystal structure, […] Å; assay type: binding; settings: covalent; Schiff base with K143; holo form, pH 4.8
T1 construct: gene Halhy_2446; N-terminal His6-TEV tag cut off with TEV protease; E. coli Rosetta(DE3) pLysS; codon-optimised synthetic gene; homodimer (about 62 kDa by gel filtration)
T1 sequence (F4KWH0 entry or part of it): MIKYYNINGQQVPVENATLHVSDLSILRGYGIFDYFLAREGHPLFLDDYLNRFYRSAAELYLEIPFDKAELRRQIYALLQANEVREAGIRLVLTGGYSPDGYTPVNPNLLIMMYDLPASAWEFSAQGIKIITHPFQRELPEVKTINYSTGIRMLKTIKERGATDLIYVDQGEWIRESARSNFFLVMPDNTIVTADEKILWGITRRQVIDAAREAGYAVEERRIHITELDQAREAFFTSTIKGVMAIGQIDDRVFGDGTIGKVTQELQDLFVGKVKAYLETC

[2] = substrate: O=C(O)CCC(=O)C(=O)O; assay: purified protein; assay type: biochemical, Haliscomenobacter hydrossis; settings: D-alanine 40 mM, 50 mM K-phosphate pH 8, 30 µM PLP
[3] = substrate: CC(C)C[C@@H](N)C(=O)O; assay: steady-state kinetics of overall transamination (HPLC of 4-methyl-2-oxovalerate); assay type: biochemical, Haliscomenobacter hydrossis; settings: α-ketoglutarate 5 mM, 50 mM K-phosphate pH 8, 30 µM PLP, 40 °C
Source text: steady-state kinetics of overall transamination (HPLC of 4-methyl-2-oxovalerate) on Halhy (D-amino acid transaminase from Haliscomenobacter hydrossis)

[4] = substrate: CC(=O)C(=O)O; assay: purified protein; assay type: biochemical, Haliscomenobacter hydrossis; settings: D-glutamate 4 mM, 50 mM K-phosphate pH 8, 30 µM PLP, 40 °C
[5] = substrate: N[C@H](CCC(=O)O)C(=O)O; assay: purified protein; assay type: biochemical, Haliscomenobacter hydrossis; settings: pyruvate 2.5 mM, 50 mM K-phosphate pH 8, 30 µM PLP, 40 °C
[6] = substrate: CC(C)CC(=O)C(=O)O; assay: steady-state kinetics of overall transamination; assay type: biochemical, Haliscomenobacter hydrossis; settings: D-alanine 40 mM, 50 mM K-phosphate pH 8, 30 µM PLP, 40 °C
Source text: steady-state kinetics of overall transamination on Halhy (D-amino acid transaminase from Haliscomenobacter hydrossis)

[7] = substrate: C[C@@H](N)C(=O)O; assay: purified protein; settings: α-ketoglutarate 5 mM, 50 mM K-phosphate pH 8, 30 µM PLP, 40 °C

`Cc1ncc(COP(=O)(O)O)c(C=O)c1O` [pyridoxal-5'-phosphate] was tested, and the “X-ray crystal structure, 2.0 Å” value [1] was “structure of WT Halhy in the holo form with a covalently bound PLP was determined”.

B1: Halhy (D-amino acid transaminase from Haliscomenobacter hydrossis) (Haliscomenobacter hydrossis DSM 1100; R179G) (protein)
chain: MIKYYNINGQQVPVENATLHVSDLSILRGYGIFDYFLAREGHPLFLDDYLNRFYRSAAELYLEIPFDKAELRRQIYALLQANEVREAGIRLVLTGGYSPDGYTPVNPNLLIMMYDLPASAWEFSAQGIKIITHPFQRELPEVKTINYSTGIRMLKTIKERGATDLIYVDQGEWIRESAGSNFFLVMPDNTIVTADEKILWGITRRQVIDAAREAGYAVEERRIHITELDQAREAFFTSTIKGVMAIGQIDDRVFGDGTIGKVTQELQDLFVGKVKAYLETC
notes: N-terminal His6-TEV tag cut off with TEV protease; E. coli Rosetta(DE3) pLysS; codon-optimised synthetic gene; homodimer (about 62 kDa by gel filtration)
Molecule B1 has a Km ([2]; 25 °C) of 8.1 ± 0.8 mM, a kcat ([2]; 25 °C) of 8.6 ± 0.6 s⁻¹ and a kcat/Km ([2]; 25 °C) of 1100 M⁻¹ s⁻¹.

B2: Halhy (D-amino acid transaminase from Haliscomenobacter hydrossis) (Haliscomenobacter hydrossis DSM 1100) (protein)
chain: B1 chain with G179R
notes: as for B1
B2 showed a Km [3] of 83 ± 8 mM, a kcat [3] of 10.5 ± 0.4 s⁻¹ and a kcat/Km [3] of 130 M⁻¹ s⁻¹. For the same molecule, the Km ([2]; 40 °C) was 2.3 ± 0.2 mM, the kcat ([2]; 40 °C) was 146 ± 4 s⁻¹ and the kcat/Km ([2]; 40 °C) was 63000 ± 7000 M⁻¹ s⁻¹. It also gave a Km [4] of 2.1 ± 0.1 mM, a kcat [4] of 215 ± 6 s⁻¹ and a kcat/Km [4] of 103000 ± 8000 M⁻¹ s⁻¹. It also gave a Km [5] of 10.3 ± 0.7 mM, a kcat [5] of 215 ± 6 s⁻¹ and a kcat/Km [5] of 21000 ± 2000 M⁻¹ s⁻¹. The Km [6] was 70 ± 6 mM, the kcat [6] was 4.2 ± 0.1 s⁻¹ and the kcat/Km [6] was 60 M⁻¹ s⁻¹. It also gave a Km [7] of 23 ± 1 mM, a kcat [7] of 146 ± 4 s⁻¹ and a kcat/Km [7] of 6300 M⁻¹ s⁻¹.
